Measurements published in article PMC11722290 (bioRxiv, 2025).

B1: Lis1^AAA5 (Lis1 M172K, D192K, Y225A, C226D) (natural protein)
chain: VLSQRQRDELNRAIADYLRSNGYEEAYSVFKKEAELDVNEELDKKYAGLLEKKWTSVIRLQKKVMELESKLNEAKEEFTSGGPLGQKRDPKEWIPRPPEKYALSGHRSPVTRVIFHPVFSVMVSASEDATIKVWDYETGDFERTLKGHTDSVQDISFDHSGKLLASCSADKTIKLWDFQGFECIRTMHGHKHNVSSVAIMPNGDHIVSASRDKTIKMWEVQTGADVKTFTGHREWVRMVRPNQDGTLIASCSNDQTVRVWVVATKECKAELREHEHVVECISWAPESSYSSISEATGSETKKSGKPGPFLLSGSRDKTIKMWDVSTGMCLMTLVGHDNWVRGVLFHSGGKFILSCADDKTLRVWDYKNKRCMKTLNAHEHFVTSLDFHKTAPYVVTGSVDQTVKVWECR
B2: Lis1^linker (Lis1 E300K, K303E, S304R, M329A) (natural protein)
chain: VLSQRQRDELNRAIADYLRSNGYEEAYSVFKKEAELDVNEELDKKYAGLLEKKWTSVIRLQKKVMELESKLNEAKEEFTSGGPLGQKRDPKEWIPRPPEKYALSGHRSPVTRVIFHPVFSVMVSASEDATIKVWDYETGDFERTLKGHTDSVQDISFDHSGKLLASCSADMTIKLWDFQGFECIRTMHGHDHNVSSVAIMPNGDHIVSASRDKTIKMWEVQTGYCVKTFTGHREWVRMVRPNQDGTLIASCSNDQTVRVWVVATKECKAELREHEHVVECISWAPESSYSSISEATGSKTKERGKPGPFLLSGSRDKTIKMWDVSTGACLMTLVGHDNWVRGVLFHSGGKFILSCADDKTLRVWDYKNKRCMKTLNAHEHFVTSLDFHKTAPYVVTGSVDQTVKVWECR
B3: Lis1^AAA6 (Lis1 N203K, D205K, Q222A) (natural protein)
chain: VLSQRQRDELNRAIADYLRSNGYEEAYSVFKKEAELDVNEELDKKYAGLLEKKWTSVIRLQKKVMELESKLNEAKEEFTSGGPLGQKRDPKEWIPRPPEKYALSGHRSPVTRVIFHPVFSVMVSASEDATIKVWDYETGDFERTLKGHTDSVQDISFDHSGKLLASCSADMTIKLWDFQGFECIRTMHGHDHNVSSVAIMPKGKHIVSASRDKTIKMWEVATGYCVKTFTGHREWVRMVRPNQDGTLIASCSNDQTVRVWVVATKECKAELREHEHVVECISWAPESSYSSISEATGSETKKSGKPGPFLLSGSRDKTIKMWDVSTGMCLMTLVGHDNWVRGVLFHSGGKFILSCADDKTLRVWDYKNKRCMKTLNAHEHFVTSLDFHKTAPYVVTGSVDQTVKVWECR

Tests used:
[1] = target: full-length human dynein (cytoplasmic dynein-1), wild type (human) (UniProt Q14204); assay: mass photometry
[2] = target: full-length human dynein (cytoplasmic dynein-1), wild type (human) (UniProt Q14204); assay: cryo-EM structure
mass photometry = target: the molecule itself; assay: mass photometry
[3] = target: B2; assay: mass photometry
[4] = target: B1; assay: mass photometry
[5] = target: B3; assay: mass photometry
human Lis1, wild type = target: T1, human Lis1, wild type (human, UniProt P43034 2-410); assay: mass photometry
T1 sequence: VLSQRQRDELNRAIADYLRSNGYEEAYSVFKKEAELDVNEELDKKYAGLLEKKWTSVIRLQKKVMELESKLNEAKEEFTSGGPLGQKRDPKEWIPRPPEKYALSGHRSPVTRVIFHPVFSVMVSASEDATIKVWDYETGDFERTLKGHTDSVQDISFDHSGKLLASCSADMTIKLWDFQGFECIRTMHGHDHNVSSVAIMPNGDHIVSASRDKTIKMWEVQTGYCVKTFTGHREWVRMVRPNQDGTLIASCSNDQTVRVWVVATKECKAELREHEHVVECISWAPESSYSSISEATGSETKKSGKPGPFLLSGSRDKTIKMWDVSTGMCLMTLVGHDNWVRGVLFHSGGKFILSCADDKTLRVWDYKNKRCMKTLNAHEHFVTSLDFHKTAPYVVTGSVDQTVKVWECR

With “human Lis1, wild type (from UniProt P43034 2-410) (natural protein)” the percent of 1:1 dynein:Lis1 complex [1] was 37%, the percent of complex formation [1] was 69% and the stoichiometry N (Lis1 dimer per dynein) [1] was 1. For the same molecule, the stoichiometry N (Lis1 per dynein) [1] was 1, the percent of autoinhibited dynein particles in Phi^L-Lis1 [2] was 57.3% and the stoichiometry N (Lis1 dimer per dynein) [2] was 1.

B1 was tested, and the “stoichiometry N” value (mass photometry) was 2.

With B2 the “stoichiometry N” value (mass photometry) was 2.

For B3, the “stoichiometry N” value (mass photometry) was 2.

B4: human Nde1 (N-terminal residues 1-190) (domain or fragment)
chain: MEDSGKTFSSEEEEANYWKDLAMTYKQRAENTQEELREFQEGSREYEAELETQLQQIETRNRDLLSENNRLRMELETIKEKFEVQHSEGYRQISALEDDLAQTKAIKDQLQKYIRELEQANDDLERAKRATIMSLEDFEQRLNQAIERNAFLESELDEKENLLESVQRLKDEARDLRQELAVQQKQEKPR
B4: binds [3]; binds [4]; binds [5]. B4: binds (human Lis1, wild type).
